Measurements: PMC2518520

How the values were obtained:
[1] = biological target: heterotrimeric Gq (Gαqβ1γ2) (UniProt P21279); assay: global least-squares fit of a kinetic model to steady-state GTPase rates; GTP-bound Gq species; purified proteins in unilamellar phospholipid vesicles; constants calculated from fitted rate constants (log average of 41 fits); protein concentrations counted on the bilayer volume, so association constants are about 13,000-fold higher than on the aqueous volume
[2] = biological target: complex of agonist-bound m1 muscarinic cholinergic receptor with heterotrimeric Gq (Gαqβ1γ2) (UniProt P11229); assay: global least-squares fit of a kinetic model to steady-state GTPase rates; nucleotide-free Gq species; purified proteins in unilamellar phospholipid vesicles; constants calculated from fitted rate constants (log average of 41 fits); protein concentrations counted on the bilayer volume, so association constants are about 13,000-fold higher than on the aqueous volume
[3] = biological target: heterotrimeric Gq (Gαqβ1γ2) (UniProt P21279); assay: as above
[4] = biological target: complex of agonist-bound m1 muscarinic cholinergic receptor with heterotrimeric Gq (Gαqβ1γ2) (UniProt P11229); assay: global least-squares fit of a kinetic model to steady-state GTPase rates; GDP-bound Gq species; purified proteins in unilamellar phospholipid vesicles; constants calculated from fitted rate constants (log average of 41 fits); protein concentrations counted on the bilayer volume, so association constants are about 13,000-fold higher than on the aqueous volume
[5] = biological target: heterotrimeric Gq (Gαqβ1γ2) (UniProt P21279); assay: as above
[6] = biological target: complex of agonist-bound m1 muscarinic cholinergic receptor with heterotrimeric Gq (Gαqβ1γ2) (UniProt P11229); assay: global least-squares fit of a kinetic model to steady-state GTPase rates; GTP-bound Gq species; purified proteins in unilamellar phospholipid vesicles; constants calculated from fitted rate constants (log average of 41 fits); protein concentrations counted on the bilayer volume, so association constants are about 13,000-fold higher than on the aqueous volume

Sequence of m1 muscarinic cholinergic receptor (P11229 whole entry): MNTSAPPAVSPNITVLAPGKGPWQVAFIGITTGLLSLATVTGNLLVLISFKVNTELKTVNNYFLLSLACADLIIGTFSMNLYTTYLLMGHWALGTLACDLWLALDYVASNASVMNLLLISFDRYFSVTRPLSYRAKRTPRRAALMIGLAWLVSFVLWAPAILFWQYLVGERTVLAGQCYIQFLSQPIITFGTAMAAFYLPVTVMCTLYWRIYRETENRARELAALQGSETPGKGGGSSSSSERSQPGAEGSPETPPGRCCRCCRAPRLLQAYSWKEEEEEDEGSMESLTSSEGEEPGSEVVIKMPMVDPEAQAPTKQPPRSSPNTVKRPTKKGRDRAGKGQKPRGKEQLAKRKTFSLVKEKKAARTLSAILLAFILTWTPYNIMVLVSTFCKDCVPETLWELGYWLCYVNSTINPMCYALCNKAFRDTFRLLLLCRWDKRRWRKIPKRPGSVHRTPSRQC

Substance	fold faster dissociation with GTP bound [1] [fold]	Ka [2] [M⁻¹]	Ka [3] [M⁻¹]	Ka [4] [M⁻¹]	fold faster dissociation than from Gq-GDP without receptor [4] [fold]	t1/2 of dissociation [4] [s]	Ka [5] [M⁻¹]	Ka [6] [M⁻¹]	Ka [1] [M⁻¹]
m1 muscarinic cholinergic receptor (from UniProt P11229 1-460)	70								
phospholipase C-β1 (from UniProt P10687 1-1216) (enzyme)		560000	370000	2300	90	0.3	280000	390000	9.6e+06
